Data published in patent US20120201854A1 (INDUSTRY FOUNDATION OF CHONNAM NATIONAL UNIVERSITY, published 2012).

B1: flagellin mutant (N153W) of V. vulnificus flagellin FlaB (ligand)
chain: MAVNVNTNVAAMTAQRYLNNANSAQQTSMERLSSGFKINSAKDDAAGLQISNRLNVQSRGLDVAVRNANDGISIAQTAEGAMNETTNILQRMRDLSLQSANGSNSKSERVAIQEEVTALNDELNRIAETTSFGGNKLLNGTYGTKAMQIGADWGEAVMLSLKDMRSDNVMMGGVSYQAEEGKDKNWNVAAGDNDLTIALTDSFGNEQEIEINAKAGDDIEELATYINGQTDLVKASVGEGGKLQIFAGNNKVQGEIAFSGSLAGELGLGEGKNVTVDTIDVTTVQGAQESVAIVDAALKYVDSHRAELGAFQNRFNHAISNLDNINENVNASKSRIKDTDFAKETTQLTKTQILSQASSSILAQAKQAPNSALSLLG
notes: Recombinant, from pTYB12 intein fusion in E. coli ER2566
B2: flagellin mutant (R93A) of V. vulnificus flagellin FlaB (ligand)
chain: MAVNVNTNVAAMTAQRYLNNANSAQQTSMERLSSGFKINSAKDDAAGLQISNRLNVQSRGLDVAVRNANDGISIAQTAEGAMNETTNILQRMADLSLQSANGSNSKSERVAIQEEVTALNDELNRIAETTSFGGNKLLNGTYGTKAMQIGADNGEAVMLSLKDMRSDNVMMGGVSYQAEEGKDKNWNVAAGDNDLTIALTDSFGNEQEIEINAKAGDDIEELATYINGQTDLVKASVGEGGKLQIFAGNNKVQGEIAFSGSLAGELGLGEGKNVTVDTIDVTTVQGAQESVAIVDAALKYVDSHRAELGAFQNRFNHAISNLDNINENVNASKSRIKDTDFAKETTQLTKTQILSQASSSILAQAKQAPNSALSLLG
notes: as for B1
B3: flagellin mutant (V291W) of V. vulnificus flagellin FlaB (ligand)
chain: MAVNVNTNVAAMTAQRYLNNANSAQQTSMERLSSGFKINSAKDDAAGLQISNRLNVQSRGLDVAVRNANDGISIAQTAEGAMNETTNILQRMRDLSLQSANGSNSKSERVAIQEEVTALNDELNRIAETTSFGGNKLLNGTYGTKAMQIGADNGEAVMLSLKDMRSDNVMMGGVSYQAEEGKDKNWNVAAGDNDLTIALTDSFGNEQEIEINAKAGDDIEELATYINGQTDLVKASVGEGGKLQIFAGNNKVQGEIAFSGSLAGELGLGEGKNVTVDTIDVTTVQGAQESWAIVDAALKYVDSHRAELGAFQNRFNHAISNLDNINENVNASKSRIKDTDFAKETTQLTKTQILSQASSSILAQAKQAPNSALSLLG
notes: as for B1
B4: flagellin mutant (D70A) of V. vulnificus flagellin FlaB (ligand)
chain: MAVNVNTNVAAMTAQRYLNNANSAQQTSMERLSSGFKINSAKDDAAGLQISNRLNVQSRGLDVAVRNANAGISIAQTAEGAMNETTNILQRMRDLSLQSANGSNSKSERVAIQEEVTALNDELNRIAETTSFGGNKLLNGTYGTKAMQIGADNGEAVMLSLKDMRSDNVMMGGVSYQAEEGKDKNWNVAAGDNDLTIALTDSFGNEQEIEINAKAGDDIEELATYINGQTDLVKASVGEGGKLQIFAGNNKVQGEIAFSGSLAGELGLGEGKNVTVDTIDVTTVQGAQESVAIVDAALKYVDSHRAELGAFQNRFNHAISNLDNINENVNASKSRIKDTDFAKETTQLTKTQILSQASSSILAQAKQAPNSALSLLG
notes: Recombinant, expressed in E. coli ER2566 from pTYB12 as intein fusion, released with DTT
B5: flagellin mutant (E108A) of V. vulnificus flagellin FlaB (ligand)
chain: MAVNVNTNVAAMTAQRYLNNANSAQQTSMERLSSGFKINSAKDDAAGLQISNRLNVQSRGLDVAVRNANDGISIAQTAEGAMNETTNILQRMRDLSLQSANGSNSKSARVAIQEEVTALNDELNRIAETTSFGGNKLLNGTYGTKAMQIGADNGEAVMLSLKDMRSDNVMMGGVSYQAEEGKDKNWNVAAGDNDLTIALTDSFGNEQEIEINAKAGDDIEELATYINGQTDLVKASVGEGGKLQIFAGNNKVQGEIAFSGSLAGELGLGEGKNVTVDTIDVTTVQGAQESVAIVDAALKYVDSHRAELGAFQNRFNHAISNLDNINENVNASKSRIKDTDFAKETTQLTKTQILSQASSSILAQAKQAPNSALSLLG
notes: as for B1
B6: flagellin mutant (L97W) of V. vulnificus flagellin FlaB (ligand)
chain: MAVNVNTNVAAMTAQRYLNNANSAQQTSMERLSSGFKINSAKDDAAGLQISNRLNVQSRGLDVAVRNANDGISIAQTAEGAMNETTNILQRMRDLSWQSANGSNSKSERVAIQEEVTALNDELNRIAETTSFGGNKLLNGTYGTKAMQIGADNGEAVMLSLKDMRSDNVMMGGVSYQAEEGKDKNWNVAAGDNDLTIALTDSFGNEQEIEINAKAGDDIEELATYINGQTDLVKASVGEGGKLQIFAGNNKVQGEIAFSGSLAGELGLGEGKNVTVDTIDVTTVQGAQESVAIVDAALKYVDSHRAELGAFQNRFNHAISNLDNINENVNASKSRIKDTDFAKETTQLTKTQILSQASSSILAQAKQAPNSALSLLG
notes: as for B1
B7: flagellin mutant (N101A) of V. vulnificus flagellin FlaB (ligand)
chain: MAVNVNTNVAAMTAQRYLNNANSAQQTSMERLSSGFKINSAKDDAAGLQISNRLNVQSRGLDVAVRNANDGISIAQTAEGAMNETTNILQRMRDLSLQSAAGSNSKSERVAIQEEVTALNDELNRIAETTSFGGNKLLNGTYGTKAMQIGADNGEAVMLSLKDMRSDNVMMGGVSYQAEEGKDKNWNVAAGDNDLTIALTDSFGNEQEIEINAKAGDDIEELATYINGQTDLVKASVGEGGKLQIFAGNNKVQGEIAFSGSLAGELGLGEGKNVTVDTIDVTTVQGAQESVAIVDAALKYVDSHRAELGAFQNRFNHAISNLDNINENVNASKSRIKDTDFAKETTQLTKTQILSQASSSILAQAKQAPNSALSLLG
notes: as for B1
B8: flagellin mutant (N135D) of V. vulnificus flagellin FlaB (ligand)
chain: MAVNVNTNVAAMTAQRYLNNANSAQQTSMERLSSGFKINSAKDDAAGLQISNRLNVQSRGLDVAVRNANDGISIAQTAEGAMNETTNILQRMRDLSLQSANGSNSKSERVAIQEEVTALNDELNRIAETTSFGGDKLLNGTYGTKAMQIGADNGEAVMLSLKDMRSDNVMMGGVSYQAEEGKDKNWNVAAGDNDLTIALTDSFGNEQEIEINAKAGDDIEELATYINGQTDLVKASVGEGGKLQIFAGNNKVQGEIAFSGSLAGELGLGEGKNVTVDTIDVTTVQGAQESVAIVDAALKYVDSHRAELGAFQNRFNHAISNLDNINENVNASKSRIKDTDFAKETTQLTKTQILSQASSSILAQAKQAPNSALSLLG
notes: as for B1
B9: flagellin mutant (A151W) of V. vulnificus flagellin FlaB (ligand)
chain: MAVNVNTNVAAMTAQRYLNNANSAQQTSMERLSSGFKINSAKDDAAGLQISNRLNVQSRGLDVAVRNANDGISIAQTAEGAMNETTNILQRMRDLSLQSANGSNSKSERVAIQEEVTALNDELNRIAETTSFGGNKLLNGTYGTKAMQIGWDNGEAVMLSLKDMRSDNVMMGGVSYQAEEGKDKNWNVAAGDNDLTIALTDSFGNEQEIEINAKAGDDIEELATYINGQTDLVKASVGEGGKLQIFAGNNKVQGEIAFSGSLAGELGLGEGKNVTVDTIDVTTVQGAQESVAIVDAALKYVDSHRAELGAFQNRFNHAISNLDNINENVNASKSRIKDTDFAKETTQLTKTQILSQASSSILAQAKQAPNSALSLLG
notes: as for B1
B10: flagellin mutant (S103W) of V. vulnificus flagellin FlaB (ligand)
chain: MAVNVNTNVAAMTAQRYLNNANSAQQTSMERLSSGFKINSAKDDAAGLQISNRLNVQSRGLDVAVRNANDGISIAQTAEGAMNETTNILQRMRDLSLQSANGWNSKSERVAIQEEVTALNDELNRIAETTSFGGNKLLNGTYGTKAMQIGADNGEAVMLSLKDMRSDNVMMGGVSYQAEEGKDKNWNVAAGDNDLTIALTDSFGNEQEIEINAKAGDDIEELATYINGQTDLVKASVGEGGKLQIFAGNNKVQGEIAFSGSLAGELGLGEGKNVTVDTIDVTTVQGAQESVAIVDAALKYVDSHRAELGAFQNRFNHAISNLDNINENVNASKSRIKDTDFAKETTQLTKTQILSQASSSILAQAKQAPNSALSLLG
notes: as for B1
B11: flagellin mutant (D70A/N135D) of V. vulnificus flagellin FlaB (ligand)
chain: MAVNVNTNVAAMTAQRYLNNANSAQQTSMERLSSGFKINSAKDDAAGLQISNRLNVQSRGLDVAVRNANAGISIAQTAEGAMNETTNILQRMRDLSLQSANGSNSKSERVAIQEEVTALNDELNRIAETTSFGGDKLLNGTYGTKAMQIGADNGEAVMLSLKDMRSDNVMMGGVSYQAEEGKDKNWNVAAGDNDLTIALTDSFGNEQEIEINAKAGDDIEELATYINGQTDLVKASVGEGGKLQIFAGNNKVQGEIAFSGSLAGELGLGEGKNVTVDTIDVTTVQGAQESVAIVDAALKYVDSHRAELGAFQNRFNHAISNLDNINENVNASKSRIKDTDFAKETTQLTKTQILSQASSSILAQAKQAPNSALSLLG
notes: Recombinant, from pTYB12 intein fusion in E. coli ER2566; also called dual site-directed mutant flagellin

How the values were obtained:
[1] = biological target: the molecule itself; assay: native-gel electrophoresis, self-association in aqueous solution
[2] = biological target: toll-like receptor-5 (hTLR5) expressed in 293T cells from p3xFlag-hTLR5 plasmid (human (printed only as hTLR5), UniProt O60602 21-858); assay: cell-based or functional assay
Sequence of toll-like receptor-5 (hTLR5) expressed in 293T cells from p3xFlag-hTLR5 plasmid (O60602 21-858): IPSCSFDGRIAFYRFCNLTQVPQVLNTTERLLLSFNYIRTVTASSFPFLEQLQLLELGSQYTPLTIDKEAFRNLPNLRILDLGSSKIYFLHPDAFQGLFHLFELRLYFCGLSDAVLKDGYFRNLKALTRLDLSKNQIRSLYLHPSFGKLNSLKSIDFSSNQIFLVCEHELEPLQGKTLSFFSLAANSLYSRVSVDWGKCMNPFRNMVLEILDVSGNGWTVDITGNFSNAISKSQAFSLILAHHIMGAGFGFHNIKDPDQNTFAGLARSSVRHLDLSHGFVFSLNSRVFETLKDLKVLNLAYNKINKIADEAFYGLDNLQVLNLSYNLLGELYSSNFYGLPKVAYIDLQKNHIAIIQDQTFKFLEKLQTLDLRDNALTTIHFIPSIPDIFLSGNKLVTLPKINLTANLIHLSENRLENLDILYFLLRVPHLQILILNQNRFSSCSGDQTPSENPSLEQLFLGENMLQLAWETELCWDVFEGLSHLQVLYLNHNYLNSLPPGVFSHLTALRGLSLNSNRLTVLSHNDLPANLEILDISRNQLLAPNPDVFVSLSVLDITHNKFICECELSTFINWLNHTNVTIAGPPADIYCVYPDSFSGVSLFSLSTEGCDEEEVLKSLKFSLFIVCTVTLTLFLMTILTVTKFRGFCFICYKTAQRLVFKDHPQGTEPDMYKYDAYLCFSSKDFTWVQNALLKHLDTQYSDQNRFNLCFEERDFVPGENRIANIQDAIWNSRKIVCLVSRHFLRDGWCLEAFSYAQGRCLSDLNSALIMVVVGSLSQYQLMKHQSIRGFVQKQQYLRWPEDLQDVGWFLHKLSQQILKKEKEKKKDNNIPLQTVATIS

Binder | binding result [1] | increase in TLR5-mediated NF-κB transcription activity (luciferase reporter, 293T cells, 20 ng/ml) compared to PBS control [2] [fold]
B1 | binds | ~24.5
B2 | binds | ~14
B3 | binds | ~16.6
B4 | binds | ~24.6
B5 | binds | ~21
B6 | binds | ~25
B7 | binds | ~22.6
B8 | binds | ~21.7
B9 | binds | ~22.5
B10 | binds | ~23.7
B11 | binds | ~14.9
